Test results published in the supplement of paper PMC9170038.

Test system: MS2 coat protein
Test: apparent KD of MS2 coat protein; designed switch direction (-1 OFF switch, 1 ON switch): -1; higher = weaker reporter binding
Method in brief: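 Three titration conditions were used: no input, 200 uM small-molecule ligand, and an oligonucleotide input. In each, SNAP-549-labelled MS2 coat protein was raised from 0.7 or 1.5 nM, doubling, to 3 µM over designed RNA switches transcribed on Illumina chips by stalled E. coli RNA polymerase. Curve fits of normalised cluster fluorescence gave values whose per-design median over clusters is the apparent KD.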

[1] = input ligand: microRNA oligo, concentration not stated
[2] = Eterna round: R95, input ligand: FMN 200 uM
[3] = Eterna round: R95, input ligand: microRNA oligo, concentration not stated
[4] = Eterna round: R95, input ligand: none

Sequence	apparent KD of MS2 coat protein (input ligand: FMN 200 uM) [nM]	apparent KD of MS2 coat protein (input ligand: none) [nM]	apparent KD of MS2 coat protein [1] [nM]	apparent KD of MS2 coat protein [2] [nM]	apparent KD of MS2 coat protein [3] [nM]	apparent KD of MS2 coat protein [4] [nM]
CAGCAGAGAGGAUAUACUUGAGGAUCACCCAAGUGACACCGCCUGGUGCGAACUUGAAGUAGAAGGUUCGGCUA [Entema] (Eterna round: R97, puzzle: Exclusion 3)	24.7	19.7	–	–	–	–
UGCUACGGAGGAUAUACAUGAGGAUCACCCAUGUGUGAGAUUAGGCCGAGAGGCCAAUGUAGAAGGCCGUAGCU [jl-ex3-4.21 jl mod] (Eterna round: R97, puzzle: Exclusion 3)	339	282	–	–	–	–
UUUGAUAGCACAGGAUAUUGUGAUUUGAGUUGACAAGAAGGGUGUACAUGAGGAUCACCCAUGUAAUGGUUGCCUCGUUGACUU [JR_ExcNG1_Sub006] (Eterna round: R96, puzzle: Exclusion NG 1)	48.8	46.8	36	–	–	–
GCUUCGUCUGUGGGUGGUGACAUGAGGAUCACCCAUGUUUUGCUCGUCUUGUGCCGGGCCCGGCGCCCGGGCCCGGC [-38.7, -63.8, A 8%] (Eterna round: R97, puzzle: Sensor, turn-off variant 1)	721	955	–	–	–	–
UUAUAGUUAGAGGAUAUAUUAAGGUAUGCUUUGAUAGAAGGCUAGACAUGAGGAUCACCCAUGUAUAUUGGGAU [JR_Ex6_Sub075] (Eterna round: R97, puzzle: Exclusion 6)	425	220	–	–	–	–
GGUUGGCGAGGAUAUACAUGAGGAUCACCCAUGUGAGAAAAUAGUGAGGAAAAGAAAAGUAGAAGGCGCUGACG [Mat - Exclusion 3 - Mod of Salish D54] (puzzle: Exclusion 3)	–	–	–	320	38.8	41.5
CAGUACUGAGGAUAUACAUGAGGAUCACCCAUGUGCCUUAGCUAGGAUACUAGCAUUAGUAGAAGGCAGUACUG [Fiskers Ex 3 828 mod 14] (puzzle: Exclusion 3)	–	–	–	–	14.2	–
AAGGAGUGAGGAUAUGCGCGGGCACGCUCUAAAUAAGAAAGACAUGAGGAUCACCCAUGUAGAAGGCACAAUAA [Leedla] (puzzle: Exclusion 2)	–	–	–	–	17.8	–
AUUUAGCAAGCCAGAUCCUACAUGAGGAUCACCCAUGUAGUUCGUCUUAUUUGAAGACAACACAAAAGUGUUGUCUU [Omei Mir OFFv1 B6] (Eterna round: R97, puzzle: Sensor, turn-off variant 1)	15.7	14	–	–	–	–
CCCGCGGGCGCAGGAUAUACAUGAGGAUCACCCAUGUGCCGCGCAAGCGGCAGAGCGGACAACGGGUAGAAGGGCGCCCGCGGG [first try] (Eterna round: R96, puzzle: Exclusion NG 2)	875	492	202	–	–	–
UUAUCAUGCUUUAGAUCCUACAUGAGGAUCACCCAUGUGCUCGUCUUGUAUCGUUCUGUGUCGUAAGUCUCUGUUCG [mod Jandersonlee designer] (Eterna round: R97, puzzle: Sensor, turn-off variant 1)	924	1390	–	–	–	–
UUUUAGUCAGGAUAUACAUGAGGAUCACCCAUGUAAAAUUUUAAUUUAAUUUGAAUGUGUAGAAGGGACAUUUU [Ex3 #41] (Eterna round: R97, puzzle: Exclusion 3)	23.6	26.4	–	–	–	–
AAGAAACAUGAGGAUCACCCAUGUGAGGAUAUGAAAAAGAAAAUAAAAUAAAGAAGAAUCAGAAGGCACAAAGG [Mat - Mod of Hog D4] (puzzle: Exclusion 1)	–	–	–	34	24.9	28.1
AUUUAACAUGAGGAUCACCCAUGUGAGGAUAUGUCCAUAUUCGGCAAAUCGGAUAUGGACAGAAGGCACACCGG [JR_Exclusion1_Sub008] (puzzle: Exclusion 1)	–	–	–	–	139	–
AGUAACAGAGGAUAUACUGUUUUAUGUGUUUAUUGUUUUAAACAUGAGGAUCACCCAUGUAGAAGGCUGAAUAA [JMF 85] (puzzle: Exclusion 2)	–	–	–	–	25.5	–
AAUGCGGACAAAGGAUAUUGCGGUGACCGGCUCGGCGUACCGAGCCUACAUGAGGAUCACCCAUGUAAGAAGGUUGUCGCAAAA [Mat - Exclusion NG 2 - Mod of JL - D75] (Eterna round: R96, puzzle: Exclusion NG 2)	16.6	17.5	13.8	–	–	–
AUAAAACGAGGAUAUGCUGGGCUUCUGUGAUGCAUAUGCUCACAUGAGGAUCACCCAUGUAGAAGGUGUAAAAU [Laaceve] (puzzle: Exclusion 2)	–	–	–	–	220	–
UUGAACAUAGGAUAUAGUUGUUUGUACAUGAGGAUCACCCAUGUUAGGGAUGUUUUGUUUCUAGAAGGAUGUUGAU [JR_E5_Sub001] (puzzle: Exclusion 5)	–	–	–	–	128	–

Sequence	apparent KD of MS2 coat protein (input ligand: FMN 200 uM) [nM]	apparent KD of MS2 coat protein (input ligand: none) [nM]	apparent KD of MS2 coat protein [1] [nM]	apparent KD of MS2 coat protein [2] [nM]	apparent KD of MS2 coat protein [3] [nM]	apparent KD of MS2 coat protein [4] [nM]
AAGAAACAUGAGGAUCACCCAUGUGAGGAUAUGAUUAAGAAAAGAAAAGAAAGAAGAUUCAGAAGGCACAAAGG [salish99-ex1_r3_054] (puzzle: Exclusion 1)	–	–	–	91.4	72.5	82.9
AGCGCCAUCGUGAGAUGGCGUAUUACAUGAGGAUCACCCAUGUAGGAUAUCGAUUGCUUUGCAGUCGAGAAGGACAUGUUCUUG [JL ENG3 3.80 Mod B] (Eterna round: R96, puzzle: Exclusion NG 3)	–	–	39.4	–	–	–
CUUAACUCAGGAUAUGCGGCGACAAACAUGAGGAUCACCCAUGUAAAUUGGUGAACCUGAGCAGAAGGGAGUACAA [EX5 B.2] (Eterna round: R97, puzzle: Exclusion 5)	66.4	22.6	–	–	–	–
GCGCAGCUGGUAGGAUAUUACAGACAGGACUCACGUAAGGGAGCCUGACAUGAGGAUCACCCAUGUAAGAAGGGCCGUGGUAUC [Eternabot solution 11] (Eterna round: R96, puzzle: Exclusion NG 2)	34.5	22.5	19.8	–	–	–
UGUUUAUAUGAAGGAUAUACUUAACAUGAGGAUCACCCAUGUGGUGUUGUGAGUGAGUGAGUUUAGUAGAAGGUCAAGUAUUUU [JMF's solution 54] (Eterna round: R96, puzzle: Exclusion NG 2)	681	395	373	–	–	–
UCGCUCCGUGUAGGAUAUCGUUGUACCCUGCGGCGAGAAGGACAUGAGGAUCACCCAUGUAUGUUAUUAUCACGCGUGGCGCAC [Design 70] (Eterna round: R96, puzzle: Exclusion NG 1)	15.4	21.6	15.5	–	–	–
GGUAGUUCAGAUCCACAUGAGGAUCACCCAUGUUAAAGGAUCUAGGAUAUCGGGACAUCGAUGCCCGAGAAGGAGACUUUAGCG [Eternabot solution 39] (Eterna round: R96, puzzle: Exclusion NG 3)	173	101	100	–	–	–
AGAUCACAUGAGGAUCACCCAUGUCAGGAUAUCAUCAUUGAAGCCUCGGCUUCAAUGAUGAGAAGGGACAUAAU [E1/2-B2] (Eterna round: R97, puzzle: Exclusion 1)	546	465	–	–	–	–
AACGAGUGAGGAUAUCUUGACGGUUUGCAUCAGGCCCUCACAGAGAAGGCACUUGAGGAUCACCCAAGUGACCA [Eredgeinus] (Eterna round: R97, puzzle: Exclusion 4)	16.5	14.2	–	–	–	–
AGUAGAUCUACGCUUGCGUGGAUCUGCUAGGCAGGUGUAACAUGAGGAUCACCCAUGUCCUCAUUUGUUCGUCUUAU [JL turnoff v2 99.18] (puzzle: Sensor v3, turn-off variant 2)	–	–	–	85.4	313	28.3
UACCUCACUUCUUUGACUCACAUGAGGAUCACCCAUGUAAUAUAGGAUAUGCAUUUUAUUUCUUUGCAGAAGGAUAUUAGUUUU [JR_ExcNG3_Sub089] (Eterna round: R96, puzzle: Exclusion NG 3)	–	–	31.3	–	–	–
UUAUUAUAUGUAGGAUAUGCAUAUUGUUGUUAUGCAGAAGGACAUGAGGAUCACCCAUGUAUAUUAUUGUUGUAUAUUAUAUAU [Title] (Eterna round: R96, puzzle: Exclusion NG 1)	37.4	24.1	17.5	–	–	–
UGUUGUUACGUAGGAUAUCCACCAACAGGUGGAAGGAUAUGUACGCAGAAGGUUCGCCAACAGGCGGAGAAGGACGUGUUAACA [pwkr exNG2 2xF7 2xFMN.28] (Eterna round: R96, puzzle: Exclusion NG 2)	675	385	1110	–	–	–
AGUCCAUAUGUUAGGAUAUGCAACUAGCCAUUGUAGCAGAAGGAACAUGAGGAUCACCCAUGUACAAAGACCCG [Biinvees] (puzzle: Brourd's mod of Exclusion 4)	–	–	–	33.6	23.6	18.2
GGUUGGCGAGGAUAUACAUGAGGAUCACCCAUGUGAGAGAUAAAAGUGAGGAAGAAAAGUAGAAGGCGCUGACG [salish99_ex3_r3_012] (puzzle: Exclusion 3)	–	–	–	155	29.5	69
CCAGGCAGUGUGAGGAUAUGCUGGUGCAUACAUCAGCAGAAGGCACAUGAGGAUCACCCAUGUGAAGAGCUUGG [Mat - Exclusion 4 - JL Mod - D98] (puzzle: Brourd's mod of Exclusion 4)	–	–	–	179	16.9	27.5
UCCUGACAUGAGGAUCACCCAUGUAAGGAUAUCAGCCACCCAGCAAAAGCUGGGCAAGUGAGAAGGUACACGGG [EX1 A.30] (Eterna round: R97, puzzle: Exclusion 1)	157	30.6	–	–	–	–
